Columns and labels:
[1] = system: ERK1/2 phosphorylation in MLE-12 cells; experiment: P-ERK1/2 immunoblot, WNT-5A stimulated MLE-12 cells; format: cell-based, mouse; details: 300 ng ml^−1 WNT-5A
Procedure: MLE-12 or HEK293 cells (ATCC) were plated in a 24- or 48-well plate at a density of 100,000 or 50,000 cells/well, respectively. After 24 h, cells were transfected using Lipofectamine 2000 according to the manufacturer’s instructions. Cells were stimulated (24 h post-transfection) with 300 ng ml^−1 recombinant carrier-free WNT-5A (CF WNT-5A; R&D Systems). Stimulation was stopped by the addition of lysis buffer (1% NP-40, 150 mM NaCl, 50 mM Tris/HCl pH 8). Lysates were sonicated and analyzed by 7.5 or 10% Mini-PROTEAN TGX precast polyacrylamide gels (Bio-Rad) and transferred to PVDF membranes using the Trans-Blot Turbo system (Bio-Rad). […] Proteins were detected with horseradish peroxidase-conjugated secondary antibodies (goat anti-rabbit and goat anti-mouse (Pierce)) and Clarity Western ECL Blotting Substrate (Bio-Rad). […]
Supplementary Figure 6: FZD6 in mouse lung epithelial cells, related to Figure 6. […] The bar graph depicts expression levels of fzd1-10 mRNA in mouse lung epithelial cells (MLE-12) measured by quantitative PCR. […] Primer efficiency has been quantified previously (Halleskog et al., 2012). (b) MLE-12 wt and CRISPR/Cas9 FZD6+/- cells were seeded in a 24-well plate and counted after trypsinization at the indicated time points. Cell proliferation was quantified by cell counting in a Bürker chamber. […]

SNAP-FZD6 = SNAP-FZD6 internalization by confocal microscopy; format: cell-based; details: HEK293; WNT-5A 300 ng ml^−1, 15 min
Procedure: SNAP-FZD6 and SNAP-β2-AR were imaged in living cells using a Zeiss LSM710 equipped with a 40×, 1.2 NA C-Apochromat objective. The cell-impermeable SNAP substrate SNAP-Surface 549 (New England Biolabs) was added (1:1000, 15 min), washed twice in BE buffer and imaged using the 561 nm laser line. SNAP-FZD6 and SNAP-β2-AR were stimulated with 300 ng ml^−1 WNT-5A and 10 µM isoproterenol, respectively, and fluorescence was monitored over time.

B1: WNT-5A: recombinant carrier-free WNT-5A (R&D Systems), agonist for FZDs (protein, UniProt P41221 62-380, looked up)
Protein Wnt-5a: IIGAQPLCSQLAGLSQGQKKLCHLYQDHMQYIGEGAKTGIKECQYQFRHRRWNCSTVDNTSVFGRVMQIGSRETAFTYAVSAAGVVNAMSRACREGELSTCGCSRAARPKDLPRDWLWGGCGDNIDYGYRFAKEFVDARERERIHAKGSYESARILMNLHNNEAGRRTVYNLADVACKCHGVSGSCSLKTCWLQLADFRKVGDALKEKYDSAAAMRLNSRGKLVQVNSRFNSPTTQDLVYIDPSPDYCVRNESTGSLGTQGRLCNKTSEGMDGCELMCCGRGYDQFKTVQTERCHCKFHWCCYVKCKKCTEIVDQFVCK
phosphorylation of ERK1/2 on WNT-5A stimulation [1]: time-dependent, partially pertussis toxin-sensitive phosphorylation of ERK1/2
time of maximal increase in P-ERK1/2 ([1]; 0–20 min, three independent experiments): 5 min
internalization of SNAP-FZD6 (SNAP-FZD6): minimal internalization of SNAP-FZD6 was observed and this was not enhanced by the addition of recombinant WNT-5A

Source: PMC5548745, “Agonist-induced dimer dissociation as a macromolecular step in G protein-coupled receptor signaling” (Nature Communications, 2017)
